Measured values as given in article PMC11879086, “Identification and characterization of a human MORC2 DNA binding region that is required for gene silencing” (Nucleic Acids Research, 2024).
Where a chain is given by its changes, count along the chain named.

Assays:
MORC2 subset C = target: T1, MORC2 subset C (Homo sapiens, UniProt Q9Y6X9 1-1032, R754D;R755D;K756D;R758D;K760D;R761D); experiment: fluorescence anisotropy; apo; FA/EMSA: 50 mM NaCl, 3 mM MgCl2, 20 mM Na-HEPES pH 7.4, 1 mM TCEP, 10% glycerol, 0.025 mM ZnCl2, 50 ug/ml BSA, room temperature; 1 nM nucleic acid (FA) or 20 nM DNA (EMSA); details: protein: recombinant; tags: tag removed by TEV; chain copies: 2; label: 5'-6-FAM; blunt
T1 sequence: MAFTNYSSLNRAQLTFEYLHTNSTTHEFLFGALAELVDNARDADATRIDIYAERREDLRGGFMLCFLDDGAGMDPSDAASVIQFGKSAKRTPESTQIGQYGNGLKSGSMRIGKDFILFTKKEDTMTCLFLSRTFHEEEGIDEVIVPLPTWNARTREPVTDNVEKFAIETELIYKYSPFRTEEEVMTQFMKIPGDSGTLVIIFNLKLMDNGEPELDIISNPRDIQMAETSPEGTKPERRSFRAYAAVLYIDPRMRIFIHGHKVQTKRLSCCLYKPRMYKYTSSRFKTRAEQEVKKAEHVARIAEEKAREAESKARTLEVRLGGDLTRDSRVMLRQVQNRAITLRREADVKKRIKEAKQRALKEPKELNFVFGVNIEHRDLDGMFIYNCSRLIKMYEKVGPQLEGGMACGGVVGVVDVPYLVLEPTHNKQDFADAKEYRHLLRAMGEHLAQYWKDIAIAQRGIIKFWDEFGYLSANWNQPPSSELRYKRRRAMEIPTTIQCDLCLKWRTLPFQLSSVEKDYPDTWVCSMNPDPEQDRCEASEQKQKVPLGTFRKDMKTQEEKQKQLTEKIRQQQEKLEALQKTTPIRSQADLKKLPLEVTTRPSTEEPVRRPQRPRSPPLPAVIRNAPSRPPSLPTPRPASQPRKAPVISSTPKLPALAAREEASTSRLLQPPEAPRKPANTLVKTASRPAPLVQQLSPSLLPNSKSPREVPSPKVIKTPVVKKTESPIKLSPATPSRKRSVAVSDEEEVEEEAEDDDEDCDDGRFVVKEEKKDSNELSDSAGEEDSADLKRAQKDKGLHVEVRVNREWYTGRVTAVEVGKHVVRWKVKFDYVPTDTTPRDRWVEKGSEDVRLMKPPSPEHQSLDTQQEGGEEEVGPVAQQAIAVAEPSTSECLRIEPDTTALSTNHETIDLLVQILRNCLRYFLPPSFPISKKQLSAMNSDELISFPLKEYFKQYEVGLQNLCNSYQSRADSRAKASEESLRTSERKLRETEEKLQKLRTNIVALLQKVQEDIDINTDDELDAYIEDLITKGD

[1] = target: T2, MORC2 dephosphorylated (wild-type) (Homo sapiens, UniProt Q9Y6X9 1-1032); experiment: as above; details: protein: recombinant; tags: tag removed by TEV; chain copies: 2; label: 5'-6-FAM; blunt
T2 sequence: T1 sequence with D754R, D755R, D756K, D758R, D760K, D761R

B1: Random 35mer dsDNA (dsDNA)
DNA 1: ATAGGGTCCATCAGAATTCGGATGAACTCGGTGTG
DNA 2: CACACCGAGTTCATCCGAATTCTGATGGACCCTAT
Kd (MORC2 subset C): 60 ± 20 nM
Kd [1]: 17 ± 4 nM
